Results reported in patent US7537762B2, “Human monoclonal antibodies to activin receptor-like kinase-1” (Amgen Fremont, Inc., priority 2005, dated 2009).
Residue numbers refer to the chain shown, from its start. Blank lines part the entries; values can stand above or below the molecule they belong to.

Columns and labels:
[1] = biological target: T1, Recombinant human ALK-1/FC chimera (Homo sapiens, UniProt P37023); assay: BIACORE cross-competition / epitope binning; assay type: binding; conditions: panel of 14 antibodies, 50 nM, primary/secondary injections
T1 construct: purchased R&D Systems, Inc. 370-AL; host or cells: mouse myeloma cell line
Method: Cross-competition experiments were performed using the BIACORE® 3000 instrument (Biacore International AB, Uppsala, Sweden and Piscataway, N.J.), following the manufacturer's protocols.
Recombinant human ALK-1/FC chimera was immobilized onto the dextran layer of a CM5 biosensor chip using amine coupling. Chips were prepared using 10 mM acetate buffer pH 5.0 as the immobilization buffer and a protein density of 940 RU was achieved. Deactivation of unreacted N-hydroxysuccinimide esters was performed using 1 M ethanolamine hydrochloride, pH 8.5.
Purified mAbs were diluted to a concentration of 50 nM in HBS-EP running buffer (0.01 M HEPES pH 7.4, 0.15 M NaCl, 3 mM EDTA, 0.005% Polysorbate 20). A primary antibody was chosen and then injected across the flow cell for 600 seconds at a rate of 10 μL/min. After the injection was complete, a secondary antibody was chosen and injected across the same flow cell for 600 seconds at a rate of 10 μL/min. The sensor surface was regenerated by a 12 second injection of 100 mM H3PO4 (25 μL/min).
After regeneration, the primary antibody was again injected across the flow cell for 600 seconds at a rate of 10 μL/min. […] Threshold values were determined by using the same antibody as both the primary antibody and secondary antibody. […]

[2] = biological target: T2, recombinant human ALK-1/Fc fusion protein (hALK-1/Fc) (Homo sapiens, UniProt P37023); assay: Avidity by surface plasmon resonance (BIACORE), immobilized hALK-1/Fc; assay type: binding; conditions: SPR, dissociation monitored 10 minutes
T2 construct: purchased R&D Systems, Inc. 370-AL; host or cells: mouse myeloma cell line
Method: Avidity measures of purified anti-ALK-1 antibodies by surface plasmon resonance using the BIACORE® 3000 instrument were performed as follows using the manufacturer's protocols.
To perform kinetic analyses, recombinant human ALK-1/Fc fusion protein (hALK-1/Fc) and cynomologus ALK-1/Fc fusion protein (cALK-1/Fc) were immobilized on separate flow cells of a CM5 BIAcore sensor chip using routine amine coupling. […] Deactivation of unreacted N-hydroxysuccinimide esters was performed using 1 M ethanolamine hydrochloride, pH 8.5. Antibody samples in running buffer were prepared at concentrations ranging from 0.125 to 2 nM (a 0 nM solution comprising running buffer alone was included as a zero reference). Samples were randomized and injected in duplicate for 10 minutes each across all 4 flow cells using HBS-EP (10 mM HEPES pH 7.4, 150 mM NaCl, 3 mM EDTA, 0.005% Surfactant P20) as running buffer. […] A flow rate of 25 μL/min was used to determine avidity values. The dissociation of the antibody was monitored for 10 minutes, the surface regenerated by a 12 second injection of 100 mM H3PO4 (25 μL/min). The raw data were processed using the Scrubber (©BioLogic Software) software package and analyzed using the CLAMP (©BioLogic Software) software package. […]

[3] = biological target: T3, monomeric ALK-ECD (Homo sapiens, UniProt P37023); assay: Affinity constants of representative mAbs by SPR (BIACORE), Example 8; assay type: binding; conditions: mAb immobilized (200-400 RU), monomeric ALK-ECD 3.125-400 nM, different ECD preparation than Example 7
T3 construct: made in house; host or cells: 293T cells, transient, secreted (pSecTag2/Hygro)
Method: Affinity measures (KD and koff) of purified anti-ALK-1 antibodies by surface plasmon resonance using the BIACORE® 3000 instrument were performed as follows using the manufacturer's protocols.
To perform kinetic analyses, affinity-purified mAbs were immobilized onto the dextran layer of a CM5 biosensor chip using amine coupling. Surfaces were prepared using 10 mM acetate buffer pH 5.0 as the immobilization buffer and protein densities of 200-400 RU were achieved. Deactivation of unreacted N-hydroxysuccinimide esters was performed using 1 M ethanolamine hydrochloride, pH 8.5. Samples of monomeric ALK-ECD in running buffer were prepared at concentrations ranging from 3.125-400 nM (a 0 nM solution comprising running buffer alone was included as a zero reference). Samples were randomized and injected in duplicate for 2 minutes each across all 4 flow cells using HBS-EP (10 mM HEPES pH 7.4, 150 mM NaCl, 3 mM EDTA, 0.005% Surfactant P20) as running buffer. […] Dissociation of monomeric ALK-ECD was monitored for 10 minutes, the surface regenerated by a 12 second injection of 100 mM H3PO4 (25 μL/min). The raw data were processed using the Scrubber (©BioLogic Software) software package and analyzed using the CLAMP (©BioLogic Software) software package. The data were fit globally to a simple 1:1 Langmuir binding model.

[4] = test system: human vessels (human CD-31); assay: Collagen model in human foreskin-SCID chimera mice, human CD-31 staining; assay type: in vivo, human foreskin-SCID chimera mouse; conditions: 3.0 mg/ml Collagen, no HMVEC, 100 μg/ml id. injection
Excerpt: Upon arrival from National Disease Research Institute and Cooperative Human Tissue Network, human foreskin pieces were trimmed of unhealthy regions and transferred to RPMI media (CELLGRO®/Mediatech, Cat# MT-15-040-CV supplemented with Penicillin and Streptamycin (GIBCO®/Life Tech, Cat# 15070-063) (add 5 mLs of the pen/strep stock solution into 500 mLs of RPMI). Using a scalpel and cutting in sterile petri dish, the skins were trimmed to an oval shape of approximately 8×13 mm cleaning any ragged ends and connective tissues, and stored on wet ice prior to surgery. The appropriate volume (4 μL/gram of animal) of 100 mg/mL (KeTASET®(ketamine), Fort Dodge Animal Health)/1 mg/mL medetomidine (Pfizer Animal Health-DORMITOR®(medetomidine)) solution was intraperitoneally injected into scid mouse abdomen (i.e., at a 45° angle, under skin but not too deep internally). Once anesthetized, the mice were applied with eye lubricant, a subcutaneuosly injection of Ketoprofen (10 mg/kg, Fort Dodge Animal Health) and hair was shaved over the site of the surgery. […] Complete healing occurred between 21-28 days after which time skins were ready to be inoculated with tumor cells.

- epitope bin [1]: in one bin
B1: 1.11.1: human anti-ALK-1 monoclonal antibody; VH SEQ ID NO: 10, VL SEQ ID NO: 12 (antibody, V domains shown)
VH: QVQLVESGGGVVQPGRSLRLSCAASGFTFSSHGMYWVRQAPGKGLEWVAAIWYDGSNKYYADSVKGRFTISRDNSKNTLYLQMNSLRAEDTAVYYCARDQEQWPDVFDIWGQGTMVTVSS
VL: DIQMTQSPSSLSASVGDRVTITCRASQGIRNYLAWFQQKPGKAPKSLIYGASSLQSGVPSKFSGSGSGTDFTLTISSLQPEDFATYYCQQYNSYPLTFGGGTKVEIK
modifications: Human

- hALK-1/Fc koff [2]: 1.1e-05 s⁻¹
B2: 1.162.1: human anti-ALK-1 monoclonal antibody; VH SEQ ID NO: 26, VL SEQ ID NO: 28 (antibody, V domains shown)
VH: QVQLQESGPGLVKPSQTLSLICTVSGGSISSGEYYWSWIRQHPGKGLEWIGYIYYSGSTYYNPSLKSRLTISVDTSKNQFSLKLSSVTAADTAVYYCAREGIGAFDIWGQGTMVTVSS
VL: EIVLTQSPGTLSLSPGERATLSCRASQSVSSSYLAWYQQKPGQAPRLLIYGASSRATGIPDRFSGSGSGTDFTLTIIRLDPEDFAVYYCQRYGSSPITFGQGTRLEIK
modifications: Human

- off-rate [3]: 2.5e-05 s⁻¹
- on-rate [3]: 32000 M⁻¹ s⁻¹
B3: 4.72.1: human anti-ALK-1 monoclonal antibody; VH SEQ ID NO: 66, VL SEQ ID NO: 68 (antibody, V domains shown)
VH: QVQLQESGPGLVKPSQTLSLTCTVSGGSISSGEYYWSWIRQHPGKGLEWIGYIFYSGSTYYNPSLKSRVTISLDTSKNQFSLKLSSVTAADTAVYYCARESTDGMDVWGQGTTVTVSS
VL: B2 VL with Q39R, A52V, I77S, D80E, R91Q, P96M
modifications: Human

B4: 1.14.1: human anti-ALK-1 monoclonal antibody; VH SEQ ID NO: 18, VL SEQ ID NO: 20 (antibody, V domains shown)
VH: QVQLQESGPGLVKPSETLSLTCTVSGGSVSSGDYYWNWIRQPPGKGLEWIGYIYYSGSTNYNPSLKSRVTISVDTSKNQFSLKLSSVTAADTAVYYCAREAVSAFDYWGQGTLVTVSS
VL: B2 VL with S32T, Y37H, A52V, T57S, I59V, I77S, D80E, R91Q
modifications: Human
- Human vessel scoring ([4]; 4 days of Rx): 44 ± 28 1 × 10^3
- % of Control (human vessels) ([4]; 4 days, control = isotype control antibody): 59%
